From the Human Domainome abundance scans (Beltran et al. 2025)
± gives the uncertainty stated by the source.

B1: TOX high mobility group box family member 3, residues 256 to 323; numbered along this chain, O15405 (parent)
chain: QKPVSAYALFFRDTQAAIKGQNPNATFGEVSKIVASMWDSLGEEQKQVYKRKTEAAKKEYLKALAAYR

Variants of: B1
Test: abundance fitness (aPCA) (normalised: wild type 0, dead -1); higher = more abundant; growth selection in yeast, the domain comes from the species named
Conditions: Homo sapiens

QKPVSAYALFFRDTQAAIKGQNPNATFGEVSKIVASMHDSLGEEQKQVYKRKTEAAKKEYLKALAAYR [W38H] and QKPVSAYALFFRDTQAAIKGQTPNATFGEVSKIVASMWDSLGEEQKQVYKRKTEAAKKEYLKALAAYR [N22T] are within error of each other in abundance fitness: -0.727 ± 0.45 for the first, -0.293 ± 0.084 for the second.

Compared with QKPVSAYALFFRDTQAAIKGQNPNATFGEVSKQVASMWDSLGEEQKQVYKRKTEAAKKEYLKALAAYR [I33Q], QKPVSAYALFFRDTQAAIKGQNPNATFGEVSKNVASMWDSLGEEQKQVYKRKTEAAKKEYLKALAAYR [I33N] is lower in abundance fitness: -0.122 ± 0.092 for the first, -0.329 ± 0.094 for the second.

QKPVSAYALFFRDTQAAIKGQNPNATFGEVSKIVASMWDSDGEEQKQVYKRKTEAAKKEYLKALAAYR [L41D] and QKPVSAYALFFRDTQAAIKGQNPNATFGEVSKIVASMWDSHGEEQKQVYKRKTEAAKKEYLKALAAYR [L41H] are within error of each other in abundance fitness: -0.847 ± 0.34 for the first, -0.766 ± 0.19 for the second.

Compared with QKPVSAYALFFRDTQAAIKGQNPNATFGEVSKIVASMWDSPGEEQKQVYKRKTEAAKKEYLKALAAYR [L41P], QKPVSAYALFFRDTQAAIKGQNPNATFGEVSKIVASMWDSLGEEQKQVYKRKTEAEKKEYLKALAAYR [A56E] is higher in abundance fitness: -0.724 ± 0.2 for the first, -0.007 ± 0.077 for the second.

Compared with QKPVSAYALFFRDTQAAIKGQNPNATFGEVSKIVASMWDSLGEEQKQVYKRKFEAAKKEYLKALAAYR [T53F], QKPVSAYALFFRDTQAAIKGQNPNATFGEVSKIVASMWDSLGEEQKQVYKRKCEAAKKEYLKALAAYR [T53C] is lower in abundance fitness: 0.157 ± 0.11 for the first, -0.092 ± 0.063 for the second.

QKPVSAYALFFRDAQAAIKGQNPNATFGEVSKIVASMWDSLGEEQKQVYKRKTEAAKKEYLKALAAYR [T14A] and QKPVSAYALFFRDTQAAIKGQNPNATFGEVSKIVASMWDSLGEEQKQVYKRKTEAAKKENLKALAAYR [Y60N] are within error of each other in abundance fitness: -0.29 ± 0.11 for the first, -0.236 ± 0.18 for the second.

Going from QKPVSAYALFFRDTQAAIKGQNPNATFGEVSKIVASVWDSLGEEQKQVYKRKTEAAKKEYLKALAAYR [M37V] to QKPVSAYALFFRDTQAAIKGQNPNATFGEVSKIVASYWDSLGEEQKQVYKRKTEAAKKEYLKALAAYR [M37Y], the abundance fitness falls from -0.317 ± 0.064 to -0.826 ± 0.32.

Compared with QKPVSAYALFFRDTYAAIKGQNPNATFGEVSKIVASMWDSLGEEQKQVYKRKTEAAKKEYLKALAAYR [Q15Y], QKPVSAYALFFRDTRAAIKGQNPNATFGEVSKIVASMWDSLGEEQKQVYKRKTEAAKKEYLKALAAYR [Q15R] is lower in abundance fitness: 0.367 ± 0.34 for the first, -0.309 ± 0.072 for the second.

QKPVSAYALFFRDTQAAIKGQNPNATFGEVSKIVASMWDSLGEEQYQVYKRKTEAAKKEYLKALAAYR [K46Y] and QKPVSAYALFFRDTQAAIKGQNPNATFGEVSKIVASMWDSLGEEQMQVYKRKTEAAKKEYLKALAAYR [K46M] are within error of each other in abundance fitness: -0.529 ± 0.17 for the first, -0.356 ± 0.086 for the second.

Going from QKPVSAYALFFRDTQAAIKGQNPNATFGEVSKIVASMWDSLGEEQKQVYKRKTEAAKKEYLKALYAYR [A65Y] to QKPVSAYALFFRDTQAAIKGQNPNATFGEVSKIVASMWDSLGEEQKQVYKRKTEAAKKEYLKALQAYR [A65Q], the abundance fitness rises from -0.48 ± 0.38 to 0.004 ± 0.097.

QKPVSAYALFFRDTQAAIKGQNPNATFGEVSKIVASMWDSLGKEQKQVYKRKTEAAKKEYLKALAAYR [E43K] and QKPVSAYALFFRDTQAAIKGQNPNATFGEVSKIVASMWDSLGECQKQVYKRKTEAAKKEYLKALAAYR [E44C] are within error of each other in abundance fitness: -0.218 ± 0.1 for the first, 0.023 ± 0.18 for the second.

Compared with QKPVSAYALFFRDTQAAIKGQNPNATFGEVSKISASMWDSLGEEQKQVYKRKTEAAKKEYLKALAAYR [V34S], QKPVSAYALFFRDTQAAIKGQNPNATFGEVSKIVASMWDSLGEEQKQVYKRKTEAAKKEYLKAMAAYR [L64M] is higher in abundance fitness: -0.638 ± 0.091 for the first, -0.031 ± 0.15 for the second.

Going from QKPVSAYALFFRDTQAAIKGQNPPATFGEVSKIVASMWDSLGEEQKQVYKRKTEAAKKEYLKALAAYR [N24P] to QKPVSAYALFFRDTQAAIKGQNPNATFGEVSKIVASMWDSLGEEQKQVYKRKTEDAKKEYLKALAAYR [A55D], the abundance fitness rises from -0.848 ± 0.14 to -0.104 ± 0.07.

Going from QKPVSAYALFFRDTQAAIKQQNPNATFGEVSKIVASMWDSLGEEQKQVYKRKTEAAKKEYLKALAAYR [G20Q] to QKPVSAYALFFRVTQAAIKGQNPNATFGEVSKIVASMWDSLGEEQKQVYKRKTEAAKKEYLKALAAYR [D13V], the abundance fitness falls from 0.224 ± 0.066 to -0.344 ± 0.074.

Compared with QKPVSAYALFFRDTQAAIKGQNPNATFGEVSKIVASMWDSLGEEQKQVYKRKTEAAKKEYLKALAIYR [A66I], QKPMSAYALFFRDTQAAIKGQNPNATFGEVSKIVASMWDSLGEEQKQVYKRKTEAAKKEYLKALAAYR [V4M] is higher in abundance fitness: -0.333 ± 0.15 for the first, 0.159 ± 0.082 for the second.

Going from QKPVSAYALFFRDTQAAIKGQNPNATFGEVSKIVASMWDSLGEEHKQVYKRKTEAAKKEYLKALAAYR [Q45H] to QKPVSAYALFFRDTQAAIKGQNPNATFGEVSKIVASMWDSLGEESKQVYKRKTEAAKKEYLKALAAYR [Q45S], the abundance fitness falls from 0.098 ± 0.14 to -0.129 ± 0.061.

First: QKPVSAYALFFRDTQACIKGQNPNATFGEVSKIVASMWDSLGEEQKQVYKRKTEAAKKEYLKALAAYR [A17C]
Second: QKPVSAYALEFRDTQAAIKGQNPNATFGEVSKIVASMWDSLGEEQKQVYKRKTEAAKKEYLKALAAYR [F10E]
The abundance fitness of the first is higher: -0.278 ± 0.14 for the first, -0.635 ± 0.12 for the second.

QKPVSAYALFFRDTQAAIKGQNPNATFGEVSKIVAHMWDSLGEEQKQVYKRKTEAAKKEYLKALAAYR [S36H] and QKPVSAYALFFRDTQAAIKGQNPNATFGEVSKIVASMWDSLGEEQKQVYKRKTEAAKKEYLKALAAYL [R68L] are within error of each other in abundance fitness: -0.065 ± 0.11 for the first, -0.126 ± 0.087 for the second.

First: QKPVSAYALFFRDTQAAIKGQNPNATFGEVSKIVASMWDSLNEEQKQVYKRKTEAAKKEYLKALAAYR [G42N]
Second: QKPVSAYALFFRDTQAAIKGQNPNATFGEVSKIVASMWDSLGEEQKQVYKRKTEAAKKEYLFALAAYR [K62F]
The abundance fitness of the first is higher: 0.108 ± 0.079 for the first, -0.519 ± 0.082 for the second.

First: QKPVSAYALFFRDTQAAIKGQNPNATFGEVYKIVASMWDSLGEEQKQVYKRKTEAAKKEYLKALAAYR [S31Y]
Second: QKPVSAYALFFRDTQAAIKGQNPNATFGEVWKIVASMWDSLGEEQKQVYKRKTEAAKKEYLKALAAYR [S31W]
The abundance fitness of the first is higher: -0.162 ± 0.12 for the first, -0.696 ± 0.15 for the second.
